Laboratory results reported in patent US20260022175A1 (Chugai, published 2026).
Positions count from the first letter of the chain named. Names may count otherwise.

Legend:
human FcRn [1] = target: T1, human FcRn (human, UniProt P55899 24-290; P61769 21-119); test: SPR Biacore T200, Ab captured via Fab-kappa, pH 6.0, steady state
T1 construct: Prepared by the method of WO 2010/107110; also called hFcRn

[2] = target: T2, human FcγRIa extracellular domain with C-terminal His-tag (human, UniProt P12314 16-292); test: SPR; KD of 04H1389-G1m/04L1615-k0MT divided by KD of variant
T2 construct: extracellular domain; also called hFcγR Ia; hFcγRIa
T2 sequence (P12314 16-292): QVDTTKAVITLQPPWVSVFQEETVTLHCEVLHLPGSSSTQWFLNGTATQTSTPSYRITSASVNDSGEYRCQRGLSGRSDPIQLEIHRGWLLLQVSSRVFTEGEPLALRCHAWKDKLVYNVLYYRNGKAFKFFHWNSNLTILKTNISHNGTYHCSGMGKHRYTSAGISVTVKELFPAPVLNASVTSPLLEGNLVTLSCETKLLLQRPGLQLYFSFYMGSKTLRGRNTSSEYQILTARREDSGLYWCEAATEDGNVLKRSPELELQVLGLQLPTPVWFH

human FcRn [3] = target: T1, human FcRn; test: as above
[4] = target: T3, human FcγRIIIa V allotype extracellular domain with C-terminal His-tag (human, UniProt P08637 17-208); test: as above
T3 construct: extracellular domain; also called hFcγR IIIa V
T3 sequence (P08637 17-208 F176V): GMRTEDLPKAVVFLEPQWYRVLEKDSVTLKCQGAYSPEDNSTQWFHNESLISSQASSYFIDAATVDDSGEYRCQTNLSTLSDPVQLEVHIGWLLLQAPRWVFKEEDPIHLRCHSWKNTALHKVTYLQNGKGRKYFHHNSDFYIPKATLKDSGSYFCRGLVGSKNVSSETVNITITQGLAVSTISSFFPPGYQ

[5] = target: T4, human FcγRIIa H allotype extracellular domain with C-terminal His-tag (human, UniProt P12318 34-217); test: as above
T4 construct: extracellular domain; also called hFcγR IIa H
T4 sequence (looked up): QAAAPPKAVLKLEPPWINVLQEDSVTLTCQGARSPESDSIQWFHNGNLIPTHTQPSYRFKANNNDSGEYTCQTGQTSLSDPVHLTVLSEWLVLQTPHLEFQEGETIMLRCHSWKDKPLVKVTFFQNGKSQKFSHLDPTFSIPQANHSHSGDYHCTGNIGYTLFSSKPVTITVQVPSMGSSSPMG

[6] = target: T5, human FcγRIIa R allotype extracellular domain with C-terminal His-tag (human, UniProt P12318 34-217); test: as above
T5 construct: extracellular domain; also called hFcγR IIa R
T5 sequence (looked up): T4 sequence (looked up) with H134R

[7] = target: T2, human FcγRIa extracellular domain with …; test: SPR Biacore T200, Ab captured via Fab-kappa, pH 7.4, 25C;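 also: each FcγR flowed as analyte over the captured antibodies, KD derived by 1:1 Langmuir or steady-state affinity fitting depending on the receptor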
Experimental: (§1) The interaction between the generated antibodies and human FcγRs was analyzed using Biacore T200. 50 mM Na-Phosphate, 150 mM NaCl, 0.05% Tween20 (pH 7.4) was used as the running buffer, and the assay was performed at 25° C. For the sensor chip, Series S SA (GE Healthcare) chips onto which CaptureSelect Human Fab-kappa Kinetics Biotin Conjugate (Thermo Fisher Scientific) was immobilized were used. The antibodies of interest were captured onto these chips and each FcγR diluted in the running buffer was allowed to interact with them. Chips were regenerated with 10 mM Glycine-HCl (pH 1.5) and 25 mM NaOH, and assay was performed by repeatedly capturing antibodies. The dissociation constants KD (mol/L) for FcγRs of each antibody were calculated using Biacore T200 Evaluation Software 2.0, and using the 1:1 Langmuir binding model for FcγRIa and FcγRIIIa and the steady state affinity model for FcγRIIa. For FcγRIIb, the binding amount of FcγRIIb per unit amount of antibody was calculated by correcting the binding amount of FcγRIIb obtained from the sensorgram obtained by the measurement with the amount of antibody captured onto the chip surface.

[8] = target: T6, human FcγRIIIa F allotype extracellular domain with C-terminal His-tag (human, UniProt P08637 17-208); test: as above
T6 construct: extracellular domain; also called hFcγR IIIa F
T6 sequence (P08637 17-208): as the sequence (P08637 17-208 F176V) above, with V160F counted along it
Experimental: as §1

[9] = target: T3, human FcγRIIIa V allotype extracellular …; test: as above
Experimental: as §1

[10] = target: T4, human FcγRIIa H allotype extracellular …; test: as above
Experimental: as §1

[11] = target: T5, human FcγRIIa R allotype extracellular …; test: as above
Experimental: as §1

[12] = target: T7, human FcγRIIb extracellular domain with C-terminal His-tag (human, UniProt P31994 43-217); test: SPR; FcγRIIb bound amount per unit captured Ab
T7 construct: extracellular domain; also called hFcγR IIb
T7 sequence (looked up): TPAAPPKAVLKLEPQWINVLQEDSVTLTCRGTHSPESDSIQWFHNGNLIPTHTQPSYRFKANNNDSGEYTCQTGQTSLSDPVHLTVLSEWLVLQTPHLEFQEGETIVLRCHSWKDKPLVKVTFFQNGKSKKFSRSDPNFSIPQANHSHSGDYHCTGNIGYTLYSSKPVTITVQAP

[13] = target: T7, human FcγRIIb extracellular domain with …; test: SPR; binding amount divided by that of 04H1389-G1m/04L1615-k0MT

T1 sequence (P55899 24-290 limits assumed, chain 1 of 2): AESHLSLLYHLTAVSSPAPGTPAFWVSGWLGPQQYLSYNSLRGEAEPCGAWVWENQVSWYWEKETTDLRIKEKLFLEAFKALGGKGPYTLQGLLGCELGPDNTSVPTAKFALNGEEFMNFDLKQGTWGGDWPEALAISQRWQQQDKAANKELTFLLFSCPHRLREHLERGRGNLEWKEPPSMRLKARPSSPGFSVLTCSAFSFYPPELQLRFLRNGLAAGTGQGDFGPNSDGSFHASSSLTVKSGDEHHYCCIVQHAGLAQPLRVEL
T1 sequence (P61769 21-119 limits assumed, chain 2 of 2): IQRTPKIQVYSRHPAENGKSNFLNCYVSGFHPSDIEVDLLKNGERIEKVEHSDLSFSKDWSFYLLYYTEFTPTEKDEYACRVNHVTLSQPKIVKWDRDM

B1: 04H1389-Km461/04L1615-k0MT//04H1389-Hm443/04L1615-k0MT (antibody, human IgG1, kappa)
heavy 1: EVQLVESGGGLVKPGGSLRLSCAASGFTFSSKTMNWVRQAPGKGLEWVSSISTQSHYIYYAESVKGRFTISRDNAKNSLYLQMNSLRAEDTAVYYCARYGKREDMLWVFDYWGQGTLVTVSSASTKGPSVFPLAPSSKSTSGGTAALGCLVKDYFPEPVTVSWNSGALTSGVHTFPAVLQSSGLYSLSSVVTVPSSSLGTQTYICNVNHKPSNTKVDKRVEPKSCDKTHTCPPCPAPEFQWGPMVFLFPPKPKDVLMISRTPEVTCVVVDVSDEEPEVKFNWYVDGVEVHNAKTKPREEQYNATYRVVSVLPVLHQDWLNGKEYKCKVSNDALPAPEEKTISKAKGQPREPQVCTLPPSREEMTKNQVSLWCLVKGFYPSDIAVEWESNGQPENNYKTTPPVLDSDGSFFLYSKLTVDKSRWQQGNVFSCSVMHEALHNHYTQKSLSLSP
heavy 2: EVQLVESGGGLVKPGGSLRLSCAASGFTFSSKTMNWVRQAPGKGLEWVSSISTQSHYIYYAESVKGRFTISRDNAKNSLYLQMNSLRAEDTAVYYCARYGKREDMLWVFDYWGQGTLVTVSSASTKGPSVFPLAPSSKSTSGGTAALGCLVKDYFPEPVTVSWNSGALTSGVHTFPAVLQSSGLYSLSSVVTVPSSSLGTQTYICNVNHKPSNTKVDKRVEPKSCDKTHTCPPCPAPELLAGPSVFLFPPKPKDVLMISRTPEVTCVVVDVSHEEPEVKFNWYVDGVEVHNAKTKPREEQYNATYRVVSVLPVLHQDWLNGKEYKCKVSNDALPAPEEETISKAKGQPREPQVYTLPPSRCEMTKNQVSLSCAVKGFYPSDIAVEWESNGQPENNYKTTPPVLDSDGSFFLVSKLTVDKSRWQQGNVFSCSVMHEALHNHYTQKSLSLSP
light: DIVMTQSPLSLPVTPGEPASISCQGPSTGVGDYNYVHWYQQKPGQAPRLLIYFTSKKPSGVPDRFSGSGSGTDFTLKISRVEAEDVGVYYCQTYAAPLGPMFGQGTKLEIKRTVAAPSVFIFPPSDEQLKSGTASVVCLLNNFYPREAKVQWKVDNALQSGNSQESVTEQDSKDSTYSLSSTLTLSKADYEKHKVYACEVTHQGLSSPVTKSFNRGEC
notes: Heterodimerized antibody
- Kd (human FcRn [1]): 1700 nM
- Relative value to KD between G1m and hFcγRs [2]: 1.8
- Relative value to KD between G1m and hFcRn (human FcRn [3]): 0.7
- Relative value to KD between G1m and hFcγRs [4]: 1620
- Relative value to KD between G1m and hFcγRs [5]: 5.7
- Relative value to KD between G1m and hFcγRs [6]: 5.8
- Kd [7]: 0.025 nM
- Kd [8]: 1.2 nM
- Kd [9]: 0.56 nM
- Kd [10]: 190 nM
- Kd [11]: 260 nM
- Binding amount [12]: 0.024
- Relative binding amount [13]: 2.1

B2: 04H1389-Ks461/04L1615-k0MT//04H1389-Hs443/04L1615-k0MT (antibody, human IgG1, kappa)
heavy 1: B1 heavy 1 with C354Y
heavy 2: B1 heavy 2 with C361E
light: B1 light
notes: Heterodimerized antibody
- Kd (human FcRn [1]): 1700 nM
- Relative value to KD between G1m and hFcγRs [2]: 1.5
- Relative value to KD between G1m and hFcRn (human FcRn [3]): 0.8
- Relative value to KD between G1m and hFcγRs [4]: 1630
- Relative value to KD between G1m and hFcγRs [5]: 6.7
- Relative value to KD between G1m and hFcγRs [6]: 5.9
- Kd [7]: 0.03 nM
- Kd [8]: 1.2 nM
- Kd [9]: 0.56 nM
- Kd [10]: 160 nM
- Kd [11]: 250 nM
- Binding amount [12]: 0.024
- Relative binding amount [13]: 2.1

B3: 04H1389-Ks481/04L1615-k0MT//04H1389-Hs498/04L1615-k0MT (antibody)
heavy 1: B1 heavy 1 with C354Y, N439A, Y441T, Q443R, S445E
heavy 2: B1 heavy 2 with C361E, N439A, Y441T, Q443R, S445E
light: B1 light
notes: Heterodimerized antibody with N434A/Y436T/Q438R/S440E
- Kd (human FcRn [1]): 460 nM
- Relative value to KD between G1m and hFcγRs [2]: 1.6
- Relative value to KD between G1m and hFcRn (human FcRn [3]): 2.8
- Relative value to KD between G1m and hFcγRs [4]: 1500
- Relative value to KD between G1m and hFcγRs [5]: 5.6
- Relative value to KD between G1m and hFcγRs [6]: 5.6
- Kd [7]: 0.028 nM
- Kd [8]: 1.3 nM
- Kd [9]: 0.6 nM
- Kd [10]: 190 nM
- Kd [11]: 260 nM
- Binding amount [12]: 0.023
- Relative binding amount [13]: 2

B4: 04H1389-Ks462/04L1615-k0MT//04H1389-Hs445/04L1615-k0MT (antibody, human IgG1, kappa)
heavy 1: B1 heavy 1 with E337I, C354Y
heavy 2: B1 heavy 2 with A335K, E337D, C361E
light: B1 light
notes: Heterodimerized antibody
- Kd (human FcRn [1]): 1600 nM
- Relative value to KD between G1m and hFcγRs [2]: 1
- Relative value to KD between G1m and hFcRn (human FcRn [3]): 0.8
- Relative value to KD between G1m and hFcγRs [4]: 830
- Relative value to KD between G1m and hFcγRs [5]: 15.8
- Relative value to KD between G1m and hFcγRs [6]: 9.1
- Kd [7]: 0.047 nM
- Kd [8]: 2.1 nM
- Kd [9]: 1.1 nM
- Kd [10]: 67 nM
- Kd [11]: 160 nM
- Binding amount [12]: 0.03
- Relative binding amount [13]: 2.6

B5: 04H1389-Km481/04L1615-k0MT//04H1389-Hm498/04L1615-k0MT (antibody)
heavy 1: B1 heavy 1 with N439A, Y441T, Q443R, S445E
heavy 2: B1 heavy 2 with N439A, Y441T, Q443R, S445E
light: B1 light
notes: as for B3
- Kd (human FcRn [1]): 470 nM
- Relative value to KD between G1m and hFcγRs [2]: 1.1
- Relative value to KD between G1m and hFcRn (human FcRn [3]): 2.8
- Relative value to KD between G1m and hFcγRs [4]: 1470
- Relative value to KD between G1m and hFcγRs [5]: 5
- Relative value to KD between G1m and hFcγRs [6]: 5.1
- Kd [7]: 0.042 nM
- Kd [8]: 1.4 nM
- Kd [9]: 0.62 nM
- Kd [10]: 210 nM
- Kd [11]: 290 nM
- Binding amount [12]: 0.021
- Relative binding amount [13]: 1.9

B6: 04H1389-Ks473/04L1615-k0MT//04H1389-Hs482/04L1615-k0MT (antibody)
heavy 1: B1 heavy 1 with E337I, C354Y, N439A, Y441T, Q443R, S445E
heavy 2: B1 heavy 2 with A335K, E337D, C361E, N439A, Y441T, Q443R, S445E
light: B1 light
notes: as for B3
- Kd (human FcRn [1]): 450 nM
- Relative value to KD between G1m and hFcγRs [2]: 0.9
- Relative value to KD between G1m and hFcRn (human FcRn [3]): 2.9
- Relative value to KD between G1m and hFcγRs [4]: 760
- Relative value to KD between G1m and hFcγRs [5]: 14.1
- Relative value to KD between G1m and hFcγRs [6]: 9
- Kd [7]: 0.051 nM
- Kd [8]: 2.3 nM
- Kd [9]: 1.2 nM
- Kd [10]: 75 nM
- Kd [11]: 160 nM
- Binding amount [12]: 0.026
- Relative binding amount [13]: 2.3

B7: 04H1389-Km462/04L1615-k0MT//04H1389-Hm445/04L1615-k0MT (antibody, human IgG1, kappa)
heavy 1: B1 heavy 1 with E337I
heavy 2: B1 heavy 2 with A335K, E337D
light: B1 light
notes: Heterodimerized antibody
- Kd (human FcRn [1]): 1700 nM
- Relative value to KD between G1m and hFcγRs [2]: 0.9
- Relative value to KD between G1m and hFcRn (human FcRn [3]): 0.8
- Relative value to KD between G1m and hFcγRs [4]: 811
- Relative value to KD between G1m and hFcγRs [5]: 14.4
- Relative value to KD between G1m and hFcγRs [6]: 9.5
- Kd [7]: 0.048 nM
- Kd [8]: 2.2 nM
- Kd [9]: 1.1 nM
- Kd [10]: 74 nM
- Kd [11]: 160 nM
- Binding amount [12]: 0.029
- Relative binding amount [13]: 2.6
